According to US9340577:
Several values for one entry are separate records, joined by “and”; a condition that tells them apart may be missing. Equal entries are not always repeated.

Key:
Experiment in all cases: competition
Details in all cases: modification not given
[1] = target: T1, H-2Dd (mouse)
T1 chain 1: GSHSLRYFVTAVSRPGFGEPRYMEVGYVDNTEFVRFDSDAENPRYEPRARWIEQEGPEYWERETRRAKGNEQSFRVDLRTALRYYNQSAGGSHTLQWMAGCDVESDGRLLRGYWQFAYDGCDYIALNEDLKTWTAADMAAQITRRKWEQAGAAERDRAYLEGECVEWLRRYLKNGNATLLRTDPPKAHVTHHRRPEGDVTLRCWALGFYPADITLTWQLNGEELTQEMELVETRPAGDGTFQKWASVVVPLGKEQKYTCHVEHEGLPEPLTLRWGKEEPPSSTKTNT
T1 chain 2: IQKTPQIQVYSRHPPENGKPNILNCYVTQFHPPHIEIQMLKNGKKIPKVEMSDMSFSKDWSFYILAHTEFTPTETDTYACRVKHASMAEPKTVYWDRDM

[2] = target: HLA-B*3501 (human), P01889
[3] = target: HLA-B*5301 (human), P01889
[4] = target: HLA-B*5101 (human), P01889
[5] = target: HLA-B*5401 (human), P01889
[6] = target: HLA-B*3501 (human), P01889; remark: listed apart in the source
[7] = target: T2, H-2Ld (mouse)
T2 chain 1: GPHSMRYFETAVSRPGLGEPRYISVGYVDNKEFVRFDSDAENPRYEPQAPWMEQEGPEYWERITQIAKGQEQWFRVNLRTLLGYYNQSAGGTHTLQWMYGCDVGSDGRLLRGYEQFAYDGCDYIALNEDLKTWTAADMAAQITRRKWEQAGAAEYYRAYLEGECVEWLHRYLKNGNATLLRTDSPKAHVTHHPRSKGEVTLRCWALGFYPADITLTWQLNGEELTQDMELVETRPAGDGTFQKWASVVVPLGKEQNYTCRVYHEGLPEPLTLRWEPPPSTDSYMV
T2 chain 2: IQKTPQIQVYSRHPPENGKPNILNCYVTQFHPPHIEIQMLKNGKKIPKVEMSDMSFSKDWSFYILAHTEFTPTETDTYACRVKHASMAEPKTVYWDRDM

[8] = target: T3, H-2Db (mouse)
T3 chain 1: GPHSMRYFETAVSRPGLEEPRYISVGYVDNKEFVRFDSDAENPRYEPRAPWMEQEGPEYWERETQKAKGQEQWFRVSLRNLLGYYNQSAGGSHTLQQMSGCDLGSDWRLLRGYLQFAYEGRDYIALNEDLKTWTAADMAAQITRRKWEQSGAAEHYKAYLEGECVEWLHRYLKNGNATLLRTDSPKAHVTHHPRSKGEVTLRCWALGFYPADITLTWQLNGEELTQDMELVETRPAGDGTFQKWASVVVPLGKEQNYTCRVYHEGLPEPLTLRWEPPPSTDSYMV
T3 chain 2: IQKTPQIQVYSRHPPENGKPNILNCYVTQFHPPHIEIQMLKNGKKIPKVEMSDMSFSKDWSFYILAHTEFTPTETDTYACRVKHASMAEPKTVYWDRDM

[9] = target: T4, H-2Kb (mouse)
T4 chain 1: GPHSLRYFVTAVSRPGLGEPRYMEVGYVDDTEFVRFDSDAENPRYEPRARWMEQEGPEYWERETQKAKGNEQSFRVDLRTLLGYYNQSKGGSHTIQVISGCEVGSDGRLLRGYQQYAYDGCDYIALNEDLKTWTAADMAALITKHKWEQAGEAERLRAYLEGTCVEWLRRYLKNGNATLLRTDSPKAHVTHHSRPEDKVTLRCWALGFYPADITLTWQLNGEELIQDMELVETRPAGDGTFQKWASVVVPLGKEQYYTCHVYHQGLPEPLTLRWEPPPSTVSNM
T4 chain 2: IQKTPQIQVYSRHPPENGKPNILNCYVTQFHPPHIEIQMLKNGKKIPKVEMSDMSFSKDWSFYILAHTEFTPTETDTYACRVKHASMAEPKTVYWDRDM

[10] = target: T5, H-2Kd (mouse)
T5 chain 1: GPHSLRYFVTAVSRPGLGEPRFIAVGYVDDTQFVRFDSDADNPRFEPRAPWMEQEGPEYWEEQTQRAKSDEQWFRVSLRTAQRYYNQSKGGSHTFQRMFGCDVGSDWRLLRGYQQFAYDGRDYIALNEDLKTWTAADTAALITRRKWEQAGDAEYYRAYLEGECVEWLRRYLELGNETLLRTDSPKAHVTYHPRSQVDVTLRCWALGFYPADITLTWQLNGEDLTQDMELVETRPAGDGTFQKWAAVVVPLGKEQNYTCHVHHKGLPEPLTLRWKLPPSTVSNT
T5 chain 2: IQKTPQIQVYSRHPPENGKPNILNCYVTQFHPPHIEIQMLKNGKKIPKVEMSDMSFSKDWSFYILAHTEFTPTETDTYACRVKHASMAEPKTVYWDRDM

**Q.** With WGPSLYSIL [17.0381] as the binder, how does the IC50 [1] read?
**A.** 6.6 nM

**Q.** FPVRPQVPL [HIV nef 84] was tested. Which IC50 [2] did it give?
**A.** 43 nM

**Q.** And the IC50 [3]?
**A.** 92 nM

**Q.** What about the IC50 [4] of the same binder?
**A.** 12 nM

**Q.** And the IC50 [5]?
**A.** 71 nM

**Q.** And the IC50 [6]?
**A.** 2.2 nM

**Q.** How did the IC50 [7] turn out when KAVYNFATM [LCMV GP 33] was run?
**A.** > 27000 nM

**Q.** Which IC50 [1] does the source give for GGAYRLIVF [1476.18] here?
**A.** 3.5 nM

**Q.** WGPSLYSI [17.0003] was tested. Which IC50 [1] did it give?
**A.** 17 nM

**Q.** Which IC50 [7] does the source give for YPHFMPTNL [1164.03] here?
**A.** 7.5 nM

**Q.** For RGYVYQGL [1079.09], which IC50 [1] is on record?
**A.** > 37000 nM

**Q.** And the IC50 [8]?
**A.** > 44000 nM

**Q.** What about the IC50 [9] of the same binder?
**A.** 2.1 nM

**Q.** Which results are given for RPQASGVYM [LCMV NP 118]?
**A.** IC50 [8]: > 44000 nM; IC50 [9]: > 31000 nM; IC50 [7]: 0.99 nM and 3 nM

**Q.** With FSPRRNGYL [1476.21] as the binder, how does the IC50 [1] read?
**A.** 2.7 nM

**Q.** Which IC50 [1] does the source give for SIINFEKL [Ova 257] here?
**A.** > 37000 nM

**Q.** What about the IC50 [10] of the same binder?
**A.** > 10000 nM

**Q.** What about the IC50 [9] of the same binder?
**A.** 3.7 nM and 1.5 nM
